Test results: the nanobody polyreactivity screen of Harvey et al. (2022)

Assay: yeast display, Sf9 membrane polyspecificity reagent, FACS + sequencing; frameworks hold sequencing errors
In short: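 Sorting gates, low and high (top ~1%), were placed on anti-HA fluorescence to track expression and on streptavidin fluorescence to track reagent binding. A clone's polyreactivity label is taken from the gate it came out of. The reagent was 10% biotinylated, detergent-solubilized Sf9 membrane, applied for 1 hour at 4 °C to galactose-induced yeast display cells.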

Row | Sequence | polyreactivity (PSR sort gate)
1 | QVQLVESGGGLVQAGGSLRLSCAASGGNFSLNAMGWYRQAPGKERELVATISWSGTSTHYADSVKGRFTISRDNAKNTVYLQMNSLKPEDTAVYYCNTRLYGRDYSWYDYWGQGTQVTVSS | high polyreactivity
2 | QDQLVDSGGGLVKAGGNLRLSCPASGSTFDYNTMGWNIQEPGKESEMVAVITASGGSTYYADSVKGRFTISRDNAKNTVYLQMNSLKPEDTAVYYCAKDLYVSYYIGTCYYYWGQGTQVTVSS | low polyreactivity
3 | QVQLVESGGRLVQAGGTLRLSCAASGRTLSNYALGWSRQAPGKERELVAAISSSGSTNYADSVKGRFTISRDNAKNTVYLQMNSLKPEDSAVYYCAAESWFLRWYRYDYWGQGTQVTVSS | low polyreactivity
4 | QVQLVESGRGLVQAGGSLRLSCAASGRTFSYYVMGWYRQAPGKERELVAAISDSGGSTYYADSVKGRFTISRDNAKNTVYLQMNSLKPEDTAVYYCATDSYWYRLREYNYWGQGTQVTVSS | high polyreactivity
5 | QVQLVESGGGLVQAGGSLRLSCAASGFTFDWNAMGWYRQAPGKERELVAAISSSTGRTYYADSVKGRFTISRDNAKNTVYLQMNSLKPEDTAVYYCAASLGGYGERYYYWGQGTQVTVSS | high polyreactivity
6 | QVQLVESGGGLVQAGGSLRLSCAASGSIFGGYAMGWYRQAPGKERELVAAISSGGSTYYADSVKGRFTISRDNAKNTVYLQMNSLKPEDTAVYYCATSTYADRRNSYYYTRPRFGYWGQGTQVTVSS | high polyreactivity
7 | QVQLVESGGGLVQAGGSLRLSCAASGFTFFSNAMGWNRQAPGKERELVAAIDWSGDNTNYADSVKGRFTISRDNAKNTVYLQLNSLKPEDTAVYYCAAVYSYYRLYAYPAYYYWGQGTQVTVSS | low polyreactivity
8 | QVQLVESGGGLVQAGGSLRLSCAASGSTFTWNAMGWYRQAPGKERELVAAISGDGGSTYYADSVKGRFTISRDNAKNTVYLQMNSLKPEDTAVYYCAASSAHIFSYRYNFWGQGTQVTVSS | low polyreactivity
9 | QVQLVESGGGLVQAGGSLRLICAASGRTFVYYAMGWYRQAPGKERELVAAISGGGSKTYADSVKGRFTISRDNAKYTVYLLMNSLKPEDTAVYYCGKSVWRRYYYWGQGNQVTVSS | high polyreactivity
10 | QVQLVESGGGLVQAGGSLRLSCAASGSTFYNNAMGWYRQAPGKEREFVAAITLSGGRTYYADSVKGRFTISRDNAMNTVYLQMNSLKPEDTAVYYCAAKGTRRGKERNYWGQGTQVTVSS | high polyreactivity
11 | QVQLVESGGGLVQAGGSLRLSCAASGRTFGIYAMGWYRPAPGKERELVATISWRGGSTYYADSVKGRFTISRDNAKNTVYLQMNSLKPEDTAVYYCAAGYYPYWGQGTQVTVSS | low polyreactivity
12 | QDQLVESGGGLVQAGGSLRLSCAASGFTFYRNAMGWYRQAPGKERELVAAISRGGRTYYADSVKGRFTISRDNAKNTVYLQMNSLNPEDTAVYYCAVGYSGYVSSMDYWGQGTQVTVSS | high polyreactivity
13 | QVQLVESGGGLVQAGGSLRLSCAASAFIIHRYAMGWYRQAPGKERELVAVITSGGGSTYYADSVKGRFTISRDNAKNTVYLQMNCLKAEDTAVYYCAAFQPDNSRYRYDYWGQGTQVTVSS | high polyreactivity
14 | QVQLVESGGGLDQAGGSLPLSCAASGNTFYPNAMGWYRQAPGKERELVAAITTSGGTTYYADSVKGRFTISRDNANYTVYLQMNSLKPEDTAVYYCAAYWSRDKYDYWGQGTQVTVSS | low polyreactivity
15 | QVQLVESGGGLVQAGGSLRLSCAASGFTFVYYVMGWYRQAPGKERELVAAINAGGGSTYYADSVKGRFTISRDNAKNTVYLQMISLKPEDTSVYYCNARVRVRLGRNWSSYYYWGQGTQVTVSS | high polyreactivity
16 | QVQLVESGGGLVQAGGSLRLSCAASGFIFRGNAMGWYRQAPGKERELVAAISRRGGTTYYADSVKGRFTISRDNAKNTVYLQMNSLKPEDTAVYYCAKLVVVPFYYWGQGTQVTVSS | high polyreactivity
17 | QLQLVETGGGIVQAAGSLRLSCAASGFTYNRYAKGWYRKAPGKERELVAAISRGGTTYADSVKGRFTISRDNAKNTVYLQMNSLKPEDTAVYYCNRLRYGYPQEFGYWGQGTQVTVSS | high polyreactivity
18 | QVQLVESGGGLVQAGGSLRLSCAASVSTFDYYTMGRYRQAPGKERELVAAISSAGSTNYADSVKGRFTISRDNAKNTVYLQMNSLKPEDTAVYYCAAQVHPIRYDYWGQGTQVTVSS | low polyreactivity
19 | QVHLVESGGGLVQAGGSLRLSSAASGLIFYHYAMGWYRQAPGNERELVAAITKRGGSTYYADSVKGRFTISRDNAKNTVYLQINSLKQEDTAVYYCAADGVRYTQSFEMYWGQGTQVTVSS | high polyreactivity
20 | QVHLVESGGGLVQAGGNLRLICAASGSIFSDYTIGWYRQAPGKERELVAVITLSSGSTYFADSVKGRFTISRDNAKNTDYLQMNSLKPEDTAVYYCAADGWYYFGSGVFEYDYWRQGTQVTVSS | low polyreactivity
21 | QVQLVESGGGLFQAGGSLRLSCAASGSTFQYNAMGWYRQAPGKERELVARITSGGRTDYADSVKGRFTITRDNAKNTVYLQMNSLKPEDTAVYYCAARYGYRGSTKYLSKPFYYWGQGTQVNVSS | high polyreactivity
22 | QVQLVESGGGLVQAGGSLRLSCAASGFIFGGYAMGWYRQAPGKERELVAAISSGGGTTYADSVKGRFTISRDNAKYTVYLQMNSLKPEDTAVYYGAAVTRDYRNDRRRQRYYYWGQGTQVTVSS | high polyreactivity

Row | Sequence | polyreactivity (PSR sort gate)
23 | QVQLVESGGGLVQAGGSLRLSCAASGSTFRGYAMGWYRQAPGKERELVAAISRSGGSTYYADSVKGRFTSSRDNAKNTVYLQMNSLKPEDTGVYYCAKRTSGYYWQWFDYCGQGTQVTVSS | high polyreactivity
24 | QVQLVESGGGLVQAGGSLRLSCAASGSIFTIYAMGWYRQAPGKERELVAAITWSGGSTYYADSVKGRFTISRDNAKNTVYLQMNSLKPEDTAVYYCAAKYYGEMYYWGQGTQVTVSS | low polyreactivity
25 | QVQLVESGGGLVQAGGSLRLSCAASGFTFWYYTMGWYRQAPGKERELVAAITGRGGTTHYADSVKGRFTISRDNAKNTVYLQMNSLKPEDTAVYYCAARAYRPSLSVVRGGYWGQGTQVTVLS | high polyreactivity
26 | QVQLVQSGGGLVQAGGSLRLSCAASGSTFPQNAMGWNRQAPGKERELVAVISRSGGNTYYADSVKGRFTISRDNAKNTVYLQMNSLKPEDTAVYYCATRVNTTYDYWGQGTQVTVSS | low polyreactivity
27 | QVQLVESGGGLVQAGGSLRLSCAASGSISYFNAMGWYRQAPGKERELVAAIDVSGDSTYYADSVKGRCTISRDNAKISLYLQMNSLKPEDTAVYYCAKDPTSWYRTFGHSYYWYDYWGQGTQVTVSS | low polyreactivity
28 | QVQLVESGGGLVQAGGSLRLSCAASGFIFGSYAMGWYRQAPGKERELVAAITSGTTTYYADSVKGRFTISRDNAKNTVYLQMNSLKPEDTAVYYCAATLIYHYWQLFIISTMGYWGQGTQVTVSS | low polyreactivity
29 | QVQLVESGGGLVQAGGSLRLSCAASGRTFCYYTMVWYRQAPGKEREMVASISRVTSTYYADSVKGRFTISRDNAKNTVDLQMNSVKPEDTAVYYCAADRTRYYVGYRWTGNKMVYWGQGTQVTLSS | low polyreactivity
30 | QVQLVESGVGIVQAGGSLRLSCAASGSIFKTNAMGWYRHAPGNERELVAAITGSGGSTYYADSVKGRFTISRDNAKNNVYLQMMSLKPEDTAVYYCAKRSYRPILRWSYDYWGQGTQVTVSS | low polyreactivity
31 | QVQLVESGGGLVQAGGSLRLSCAASGSTFQLNAMGWYRQAPGKERELVAAISVRGGSTYYADSVKGRFTISRDTAKNTVYLQMHSLKPEETAVYYCATDSLYFLFAGDAVVRRPSYYWGQGTQVTVSS | high polyreactivity
32 | QVQLVESGGGLVQAGGSLRLSCDASGSIFEYYAMGWYRPAPGKERELVAAISSGGPTYYADSVKGRFTISRDNAKNTVYLQMNSLKPEDTAVYYCNADLWYPDYDYWGQGTQVTVSS | low polyreactivity
33 | QVQLVESGGGLVQAGGSLRLSCAASGFTYYVNAMGWYRPAPGKERELDAAISSSGTRTYYADSVKGRFTISRDNAKNTVYLQMNSLKPEDTAVYYCAARGQAYSGDRMYYWGQGTQVTVSS | high polyreactivity
34 | QVQLVESGGGLVQAGGSLRLSCAASGSIFTAYDMGWYRQAPGKERELVAAINVSAGTTYYADSVKGRFTISRDNAKNTVYLQMNSLKPEDTAVYYCAATFGGWGYVYVHYYYWGQGTQVTVSS | high polyreactivity
35 | HVQLVESGGGLVQAGGSLRVSCAASGRIFYYCARGWYGQAPGKEWELVAAITWSGGSTYYADSLMGRFTISRDNANNTVYVHKNSLKPEDPAVAYCTKSAAITGNGQMDYWGQCTQVTVSS | low polyreactivity
36 | QVQLVESGGGLVQAGGSLRLSCAASGFTFYNYAMGWYRQAPGKERELVAAITSRGGSTYYADSVKGRFTISRDNAKNTVYLQMNSLKPEDTAVYYCNAVAKLYYWRYDYWGQGTQVTVSS | low polyreactivity
37 | QVQLVESGAGLVQAGGSLRLSCAPSGRIFEYNAMGWYRQAPGKESELVAAIRSGGGSTYYADSVKGRFTISRDNAKNTVYLQMNSLNPEDTAVYYCAARRKRVSFYAEYDYWGQGTQVTVSS | low polyreactivity
38 | QVQLVESGGGLVQAGGSLRLSCAASGITFGTYTMGWYRQAPGKERELVAAISRSGTGTYYADSVKGRFTISRDNAKNTVYLQMNSLKPEDTAVYYCAAAGYIYYGYEYLYGFEYWGQGTQVTVSS | high polyreactivity
39 | QVQLVESGGGLVQAGGSLRLSCSASGLIYYYYTMGWYRPPPGKERELVAVISSSGGSTYYADSVKGRFTISRDNAKNTVYLQMNSLKPEDTAVYYCAAVYHFQYGAYDYWGQGTQGTVSS | high polyreactivity
40 | QVQLVESGGGLVQAGGSLRLSCAASGSTFVYYAMGWYRQAPGKERELVAAITGSVDSTYYADSVKGRFTISRDNAKNTVYLQMNSLNPEDTAVYYCAAVTYSTYWGQGTQVTVSS | low polyreactivity
41 | QVQLVESGGGLGQAGGSLRLSCAASGRTFYYYTMGWYRPAPGKERELVAAITHGGSTYYADSVKGRFTISRDNAQNTVYLQMNSLKPEDTAVYSCTAVYHYPYEYWGQGTQVTVSS | high polyreactivity
42 | QVQLVESGGGLVQAGGSLRLSCAASARTFPWYAMGLYRQAPGKERELVAAISWTGGSTYYADSVKGRFTISRDNAKHTVYLQMNSLKPEDTAVYYCAASPWYLKYEYWGQGTQVTVSS | low polyreactivity
43 | QVQLVESGGGLVQAGGSLRLSCAASGSTFRYNAMGWYRQAPGKERELVAAINWSGSSTYYADSVKGRVTISRDNAKNTVYLQMNRLKPEDTAVNYCAAERPWYTKWGEYWGQGTQVTVSS | high polyreactivity
